Assay results from the supplement of paper PMC7877785.
± gives the uncertainty stated by the source.

Experiment: self-splicing fitness, log relative to wild type (ln ratio); higher = more splicing; Tetrahymena group I intron in knt gene, E. coli kanamycin selection, DiMSum; sequences stand for … in CUCUCU…GGAGGGAAAAGUUAUCAGGCAUGCACCUGGUAGCUAGUCUUUAAACCAAUAGAUUGCAUCGGUUUAAAAGGCAAGACCGUCAAAUUGCGGGAAAGGGGUCAACAGCCGUUCAGUACCAAGUCUCAGGGGAAACUUUGAGAUGGCCUUGCAAAGGGUAUGGUAAUAAGCUGACGGACAUGGUCCUAACCACGCAGCCAAGUCCUAAGUCAACAGAUCUUCUGUUGAUAUGGAUGCAGUUCACAGACUAAAUGUCGGUCGGGGAAGAUGUAUUCUUCUCAUAAGAUAUAGUCGGACCUCUCCUUAAUGGGAGCUAGCGGAUGAAGUGAUGCAACACUGGAGCCGCUGGGAACUAAUUUGUAUGCGAAAGUAUAUUGAUUAGUUUUGGAGUACUCGUGGUCG
Procedure, shortened: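 A randomised library covering all eight P1ex-region intron nucleotides was built with the intron in the knt kanamycin-resistance gene on pET-22b(+) and held in E. coli BL21(DE3). Cells were grown overnight at 37°C or 30°C on LB agar, with or without 25 μg/mL kanamycin, plus 100 μg/mL carbenicillin, 50 μM IPTG and 0.2% rhamnose, and pooled colonies were amplicon-sequenced on an Illumina HiSeq 2500. DiMSum fitness is the error-weighted combination of wild-type-normalised replicate fold changes, kanamycin versus none.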

Row | Sequence | self-splicing fitness (ln) (30 °C) | self-splicing fitness (ln) (37 °C)
1 | GGCGAGCAAUAUUACGGCGA | -0.138 ± 0.078 | -0.0802 ± 0.092
2 | GGCGAGCAAUAUUACGGCUA | -0.343 ± 0.13 | 0.287 ± 0.14
3 | GGCGAGCAAUAUUACGGCUC | -1.83 ± 0.11 | -0.815 ± 0.21
4 | GGCGAGCAAUAUUACGGGUC | -1.2 ± 0.26 | -1.81 ± 0.35
5 | GGCGAGCAAUAUUACGGGUU | -2.52 ± 0.15 | -1.32 ± 0.13
6 | GGCGAGCAAUAUUACGUCAU | -2.45 ± 0.14 | -1.76 ± 0.11
7 | GGCGAGCAAUAUUACGUCCU | -2.41 ± 0.1 | -1.28 ± 0.09
8 | GGCGAGCAAUAUUACGUCGC | -2.72 ± 0.23 | –
9 | GGCGAGCAAUAUUACGUGAC | -1.24 ± 0.18 | -1.65 ± 0.29
10 | GGCGAGCAAUAUUACGUGAG | -3.25 ± 0.18 | -2.57 ± 0.2
11 | GGCGAGCAAUAUUACGUGUG | -1.13 ± 0.1 | -0.745 ± 0.14
12 | GGCGAGCAAUAUUACGUUAG | -1.94 ± 0.15 | -2.49 ± 0.4
13 | GGCGAGCAAUAUUACGUUCA | -0.77 ± 0.1 | 0.0965 ± 0.13
14 | GGCUAGCAAUAUUACGAGAG | -2.09 ± 0.16 | -3.24 ± 0.32
15 | GGCUAGCAAUAUUACGAGGG | -2.39 ± 0.21 | -2.27 ± 0.42
16 | GGCUAGCAAUAUUACGAGUG | -0.589 ± 0.084 | 0.347 ± 0.12
17 | GGCUAGCAAUAUUACGCAGG | -3.5 ± 0.28 | -1.81 ± 0.19
18 | GGCUAGCAAUAUUACGCGAG | -4.46 ± 0.39 | -2.74 ± 0.28
19 | GGCUAGCAAUAUUACGCGAU | -1.74 ± 0.19 | -0.776 ± 0.2
20 | GGCUAGCAAUAUUACGCGUA | -0.142 ± 0.14 | 0.00477 ± 0.15
21 | GGCUAGCAAUAUUACGGAAA | -2.79 ± 0.41 | -1.92 ± 0.29
22 | GGCUAGCAAUAUUACGGCGA | -0.177 ± 0.13 | 0.0471 ± 0.14
23 | GGCUAGCAAUAUUACGGCGG | -1.32 ± 0.13 | -0.684 ± 0.19
24 | GGCUAGCAAUAUUACGGGAA | -0.617 ± 0.14 | -1.06 ± 0.2
25 | GGCUAGCAAUAUUACGGGGG | -3.9 ± 0.37 | -2.09 ± 0.21
26 | GGCUAGCAAUAUUACGGUGU | -0.416 ± 0.062 | 0.178 ± 0.069

Row | Sequence | self-splicing fitness (ln) (30 °C) | self-splicing fitness (ln) (37 °C)
27 | GGCUAGCAAUAUUACGUAAA | -0.62 ± 0.084 | -0.198 ± 0.1
28 | GGCUAGCAAUAUUACGUACC | -0.292 ± 0.21 | 0.368 ± 0.23
29 | GGCUAGCAAUAUUACGUAGA | -0.208 ± 0.079 | -0.236 ± 0.1
30 | GGCUAGCAAUAUUACGUAUU | -0.862 ± 0.1 | -0.777 ± 0.12
31 | GGCUAGCAAUAUUACGUUCA | -0.464 ± 0.094 | 0.156 ± 0.11
32 | GGCUAGCAAUAUUACGUUGC | -1.94 ± 0.17 | -1.38 ± 0.2
33 | GGCUAGCAAUAUUACGUUGU | -1.59 ± 0.083 | -0.434 ± 0.11
34 | GGGAAGCAAUAUUACGACAG | -3.01 ± 0.31 | -3 ± 0.37
35 | GGGAAGCAAUAUUACGACCU | -2.31 ± 0.27 | –
36 | GGGAAGCAAUAUUACGAGGU | -2.81 ± 0.31 | –
37 | GGGAAGCAAUAUUACGAUAC | -0.528 ± 0.14 | -0.986 ± 0.16
38 | GGGAAGCAAUAUUACGCAAG | -2.81 ± 0.16 | -1.14 ± 0.14
39 | GGGAAGCAAUAUUACGCAGG | -3.02 ± 0.22 | -2.32 ± 0.28
40 | GGGAAGCAAUAUUACGCAUC | -2.36 ± 0.39 | -1.77 ± 0.32
41 | GGGAAGCAAUAUUACGCCGU | -0.357 ± 0.36 | -0.232 ± 0.31
42 | GGGAAGCAAUAUUACGCGAU | -3.63 ± 0.27 | -0.798 ± 0.17
43 | GGGAAGCAAUAUUACGCGGU | -3.44 ± 0.31 | -1.4 ± 0.21
44 | GGGAAGCAAUAUUACGCGUC | -3.64 ± 0.3 | -2.86 ± 0.47
45 | GGGAAGCAAUAUUACGCUGA | -2.63 ± 0.33 | -1.54 ± 0.25
46 | GGGAAGCAAUAUUACGGGAU | – | -0.0224 ± 0.27
47 | GGGAAGCAAUAUUACGGGUG | -2.68 ± 0.13 | -2.12 ± 0.18
48 | GGGAAGCAAUAUUACGGUUC | -2.44 ± 0.18 | -1.03 ± 0.22
49 | GGGAAGCAAUAUUACGGUUG | -4.02 ± 0.33 | -2.74 ± 0.22
50 | GGGAAGCAAUAUUACGUCAG | -2.92 ± 0.33 | -2.52 ± 0.33
51 | GGGAAGCAAUAUUACGUCAU | -1.42 ± 0.11 | -0.7 ± 0.13
52 | GGGAAGCAAUAUUACGUCCA | 0.145 ± 0.14 | 0.69 ± 0.16

Row | Sequence | self-splicing fitness (ln) (30 °C) | self-splicing fitness (ln) (37 °C)
53 | GGGAAGCAAUAUUACGUCGC | -1.83 ± 0.16 | -0.302 ± 0.17
54 | GGGAAGCAAUAUUACGUGCU | -1.69 ± 0.12 | -0.273 ± 0.11
55 | GGGAAGCAAUAUUACGUUCG | -0.436 ± 0.11 | 0.00472 ± 0.17
56 | GGGAAGCAAUAUUACGUUUU | -2.68 ± 0.23 | -1.62 ± 0.25
57 | GGGCAGCAAUAUUACGAAGG | -3.32 ± 0.27 | -2.45 ± 0.35
58 | GGGCAGCAAUAUUACGACGU | -0.265 ± 0.1 | 0.553 ± 0.12
59 | GGGCAGCAAUAUUACGACUG | -2.84 ± 0.2 | -0.716 ± 0.27
60 | GGGCAGCAAUAUUACGAGAC | -3.12 ± 0.26 | -1.74 ± 0.19
61 | GGGCAGCAAUAUUACGAGGG | -3.93 ± 0.34 | -2.39 ± 0.24
62 | GGGCAGCAAUAUUACGAUAC | -1.1 ± 0.11 | 0.201 ± 0.12
63 | GGGCAGCAAUAUUACGAUUC | -0.524 ± 0.17 | 0.155 ± 0.15
64 | GGGCAGCAAUAUUACGCCGG | -1.51 ± 0.11 | 0.118 ± 0.14
65 | GGGCAGCAAUAUUACGCCGU | -2.84 ± 0.21 | -1.01 ± 0.15
66 | GGGCAGCAAUAUUACGCGCU | -2.33 ± 0.19 | -1.44 ± 0.35
67 | GGGCAGCAAUAUUACGGAUG | -3.41 ± 0.26 | -2.81 ± 0.34
68 | GGGCAGCAAUAUUACGGGGU | – | -2.84 ± 0.34
69 | GGGCAGCAAUAUUACGGGUC | -2.9 ± 0.25 | -2.02 ± 0.23
70 | GGGCAGCAAUAUUACGUCAA | 0.3 ± 0.08 | 0.285 ± 0.088
71 | GGGCAGCAAUAUUACGUCUC | -2.15 ± 0.23 | -1.41 ± 0.15
72 | GGGCAGCAAUAUUACGUCUG | -1.11 ± 0.22 | -1.04 ± 0.16
73 | GGGCAGCAAUAUUACGUGAA | -0.864 ± 0.079 | -0.507 ± 0.083
74 | GGGCAGCAAUAUUACGUGUC | -3.82 ± 0.17 | -2.53 ± 0.2
75 | GGGGAGCAAUAUUACGAUGU | -1.64 ± 0.25 | -1.55 ± 0.35
76 | GGGGAGCAAUAUUACGCAAU | – | -1.66 ± 0.48
77 | GGGGAGCAAUAUUACGCCAC | -3.28 ± 0.27 | -3.39 ± 0.39
78 | GGGGAGCAAUAUUACGCGCA | -2.35 ± 0.22 | -1.32 ± 0.25
